Data reported in the supplement of paper PMC10567573.

B1: KRT33B (parent)
chain: PAVDLNQVLNETRNQYEALVETNR

Variants of: B1
Experiment: protein stability index of a GFP-peptide fusion (GPS, HEK-293T) (PSI 1-6); higher = more stable
Details: c terminus: a fixed tail appended
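Further: lentivirally expressed fusions sorted by FACS into six bins by GFP to DsRed ratio, PSI derived from sequencing read proportions per bin multiplied by bin number.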

Protein stability index, by site and new letter:
R13: F 4.15; K 3.03; W 3.92; C 4.38; I 3.32; T 4.59; L 3.46; P 5.18; S 4.8; E 4.86; D 4.93
T22: N 4.5; P 4.65; D 4.8; R 4.02; L 2.23; H 3.98; C 3.78; Q 3.94; E 4.05; I 3.02; G 4.73; F 3.61
Q7: Y 3.83; N 4.33; P 4.78; M 4.24; F 3.79
R24: T 3.87; L 2.54; G 4.72; D 5.15; E 4.13
V20: I 4.39; R 4.43; W 3.62; N 4.45; D 5.39; P 4.34; S 4.43
V8: L 1.45; P 5.14; M 2.66; H 4.05
E17: H 3.9; P 4.39; A 3.65; T 3.62; R 3.96; G 3.91; C 3.65
A18: Y 3.96; V 4.06; L 3.59; G 4.48; R 2.53; C 3.83
L19: Y 4.61; F 4.11; G 4.91; V 4.85; H 4.57; E 5.19; W 4.25; T 4.7; I 4.11
N23: I 3.24; M 3.29; E 4.51; G 4.07; Q 4.43; W 3.36; H 4.35
N14: Q 2.57; M 2.05; V 3.3; P 4.43; F 3.54; T 3.21
L9: D 4.52; Q 4.24; A 5.16; Y 4.53; N 5.13
P1: W 3.26; H 4.02; A 3.25; I 2.69; V 3.15
V3: H 4.33; Q 3.29; S 3.64; G 4.65; T 3.87; M 2.7; N 4.25; C 2.81; K 3.83
A2: F 2.39; W 1.59; R 3.57; V 3.11; S 3.23; Q 3.11
D4: C 3.88; E 3.86; M 4.15; L 3.55; F 2.82; G 4.02; A 3.94; I 3.41; T 3.08; N 4.46; S 2.74; W 2.64
E11: H 4.13; P 4.27; A 3.63; R 4.02; F 3.84; I 3.97; S 3.62; C 4.3; Q 4.29
Q15: C 3.87; R 4.37; D 4.33; L 2.04; I 3.44; K 4.06; F 2.72
N6: I 2.05; F 2.31; M 1.34; Q 2.83; W 1.82; H 2.97
T12: R 4.89; E 4.5; W 3.09; H 2.84; P 4.52
Y16: S 5.12; R 5.09; M 4.39; F 3.5
E21: S 4.05; Y 3.23; I 3.71; T 4.06
N10: Y 2.47; C 3.59; H 3.74; R 2.76; W 2.37; P 4.84; E 2.09; Q 2.58; D 3.3
L5: W 2.52; D 4.64; R 4.4; Q 4.78; T 4.48; C 3.97; S 4.78
